Square brackets hold non-standard residues; d marks the D form. Ends that are not written are not given here. Nle = CCCC[C@H](N)C(=O)O
Legend:
Assay in all cases: cell-based or functional assay
MCR1 = MCR1 (human, UniProt Q01726 1-317)
MCR3 = MCR3 (human, UniProt P41968 1-323)
MCR4 = MCR4 (human, UniProt P32245 1-332)
MCR5 = MCR5 (human, UniProt P33032 1-325)
Sequence of MCR5 (P33032 whole entry): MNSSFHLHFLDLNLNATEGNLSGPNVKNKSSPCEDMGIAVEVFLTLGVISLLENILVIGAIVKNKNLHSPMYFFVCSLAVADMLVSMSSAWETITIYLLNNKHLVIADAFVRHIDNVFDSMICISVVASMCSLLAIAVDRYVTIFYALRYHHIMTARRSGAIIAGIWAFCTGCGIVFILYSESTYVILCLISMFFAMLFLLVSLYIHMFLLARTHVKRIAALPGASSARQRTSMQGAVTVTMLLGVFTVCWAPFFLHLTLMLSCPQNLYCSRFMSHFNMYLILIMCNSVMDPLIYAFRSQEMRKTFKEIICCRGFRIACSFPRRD

Sequence of MCR4 (P32245 whole entry): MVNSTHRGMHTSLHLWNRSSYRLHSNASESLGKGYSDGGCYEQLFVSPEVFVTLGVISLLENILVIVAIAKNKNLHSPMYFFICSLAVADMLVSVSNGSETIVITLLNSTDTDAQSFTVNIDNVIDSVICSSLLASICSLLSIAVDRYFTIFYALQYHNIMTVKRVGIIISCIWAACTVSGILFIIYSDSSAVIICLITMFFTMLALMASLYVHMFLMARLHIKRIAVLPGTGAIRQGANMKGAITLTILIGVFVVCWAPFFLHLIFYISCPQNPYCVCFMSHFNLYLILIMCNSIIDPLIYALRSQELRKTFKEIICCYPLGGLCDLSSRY
Sequence of MCR3 (P41968 whole entry): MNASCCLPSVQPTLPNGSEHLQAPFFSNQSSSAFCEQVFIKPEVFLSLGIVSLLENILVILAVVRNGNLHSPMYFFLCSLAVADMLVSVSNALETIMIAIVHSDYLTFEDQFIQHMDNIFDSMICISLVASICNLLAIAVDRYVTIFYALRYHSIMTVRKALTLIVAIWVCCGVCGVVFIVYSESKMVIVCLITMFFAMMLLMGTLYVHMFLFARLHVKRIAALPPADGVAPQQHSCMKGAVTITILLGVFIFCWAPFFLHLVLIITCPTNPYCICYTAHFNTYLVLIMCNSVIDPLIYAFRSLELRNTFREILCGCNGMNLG
Sequence of MCR1 (Q01726 whole entry): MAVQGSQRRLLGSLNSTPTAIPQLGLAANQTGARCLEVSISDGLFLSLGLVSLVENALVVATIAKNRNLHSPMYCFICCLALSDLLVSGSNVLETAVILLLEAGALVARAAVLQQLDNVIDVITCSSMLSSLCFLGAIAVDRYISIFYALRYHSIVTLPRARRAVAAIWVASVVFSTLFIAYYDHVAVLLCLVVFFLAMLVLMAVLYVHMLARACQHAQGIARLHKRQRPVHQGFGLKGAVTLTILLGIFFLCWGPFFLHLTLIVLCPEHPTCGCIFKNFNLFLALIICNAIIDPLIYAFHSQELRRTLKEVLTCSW

Row | Binder | MCR1 EC50 (nM); cAMP production, LANCE cAMP assay, CHO-MCR1 cells, cell pool C (MCR1) [nM] | MCR3 EC50 (nM); cAMP production, LANCE cAMP assay, CHO-MCR3 cells, cell pool C (MCR3) [nM] | MCR4 EC50 (nM); cAMP production, LANCE cAMP assay, CHO-MCR4 cells, cell pool C (MCR4) [nM] | MCR5 EC50 (nM); cAMP production, LANCE cAMP assay, CHO-MCR5 cells, cell pool C (MCR5) [nM]
1 | Ac-SYS[Nle]EH[dF]RWGKPVGGGGSGGGGSSYSMEHFRWGKPVGKKRRPVKVYP [NDP-α-MSH-linker-linker-ACTH1-24] | 0.46 | 1.8 | 2.2 | 9.8
2 | SYSMEHFRWGKPVGKKAAAVKVYPGGGGSGGGGSSYS[Nle]EH[dF]RWGKPV (ends and bridges not checked) [ACTH1-24-point-3-5-10aa-NDP-α-MSH] | 0.78 | 1.1 | 3.8 | 16
3 | SYSMEHFRWGKPVGAARRPVKVYPGGGGSGGGGSSYS[Nle]EH[dF]RWGKPV (ends and bridges not checked) [ACTH1-24-point-1-2-10aa-NDP-α-MSH] | 0.45 | 0.58 | 2.3 | 13
4 | SYSMEHFRWGKPVGKKRRPVKVYPGGGGSGGGGSSYS[Nle]EH[dF]RWGKPV (ends and bridges not checked) [ACTH1-24-linker-linker-NDP-α-MSH] | 0.39 | 0.8 | 1.8 | 9.6
